Data reported in IntAct's records for PubMed 23435566.

B1: Rab-3A-interacting protein (Rattus norvegicus (Rat)), Q62739 (parent)
chain: MANDPLEGFHEVNLASPTSPDLLGVCDPGTQEQTTSPSVIYRPHPSTLCSATIQANALNLSDLPTQPVYSSPRHLNCAEISNISIHVPEPASSVASEVAAGLTRFTSRKDSCNAEREFLQGATVTEASAGNDDIFGLSTDSLSRLRSPSVLEVREKGYERLKEELAKAQRELKLKDEECERLSKVRDQLGQELEELTASLFEEAHKMVREANVKQATAEKQLKEAQGKIDVLQAEVAALKTLVLSSSPTSPTQEPLAAGKTPFKRGHTRNKSTSSAMSGSHQDFSAIQPIVKDCREADLSLYNEFRSWKDEPTMDRTCPFLDKIYQEDIFPCLTFAKSELASAVLEAVENNTLSIEPVGLQPIRFVKASAVECGGPKKCALTGQSKPCKHRIKLGDSSSYYYISPVCRYRITSVCNFFTYIRYIQQGLVKQQDVDQMFWEVMQLRKEMSLAKLGYFKEEL
partner: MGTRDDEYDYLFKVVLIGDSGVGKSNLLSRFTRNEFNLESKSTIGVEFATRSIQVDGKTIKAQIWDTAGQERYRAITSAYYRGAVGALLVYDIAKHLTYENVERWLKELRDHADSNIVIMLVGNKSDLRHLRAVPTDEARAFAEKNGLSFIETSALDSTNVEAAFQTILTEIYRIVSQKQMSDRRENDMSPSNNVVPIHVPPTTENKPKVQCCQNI
B2: Rab-3A-interacting protein (Rattus norvegicus (Rat)), Q62739 (parent)
chain: B1 chain

Variants of: B1
Conditions: with rb11a_mouse Rab11a

Variant	effect of a mutation on the interaction
MANDPLEGFHEVNLASPTSPDLLGVCDPGTQEQTTSPSVIYRPHPSTLCSATIQANALNLSDLPTQPVYSSPRHLNCAEISNISIHVPEPASSVASEVAAGLTRFTSRKDSCNAEREFLQGATVTEASAGNDDIFGLSTDSLSRLRSPSVLEVREKGYERLKEELAKAQRELKLKDEECERLSKVRDQLGQELEELTASLFEEAHKMVREANVKQATAEKQLKEAQGKIDVLQAEVAALKTLVLSSSPTSPTQEPLAAGKTPFKRGHTRNKATSSAMSGSHQDFSAIQPIVKDCREADLSLYNEFRSWKDEPTMDRTCPFLDKIYQEDIFPCLTFAKSELASAVLEAVENNTLSIEPVGLQPIRFVKASAVECGGPKKCALTGQSKPCKHRIKLGDSSSYYYISPVCRYRITSVCNFFTYIRYIQQGLVKQQDVDQMFWEVMQLRKEMSLAKLGYFKEEL [S272A]	increasing interaction

Variants of: B1
Conditions: with rb11a_mouse Rab11a
Remark: another data set of the same source

Variant	effect of a mutation on the interaction
MANDPLEGFHEVNLASPTSPDLLGVCDPGTQEQTTSPSVIYRPHPSTLCSATIQANALNLSDLPTQPVYSSPRHLNCAEISNISIHVPEPASSVASEVAAGLTRFTSRKDSCNAEREFLQGATVTEASAGNDDIFGLSTDSLSRLRSPSVLEVREKGYERLKEELAKAQRELKLKDEECERLSKVRDQLGQELEELTASLFEEAHKMVREANVKQATAEKQLKEAQGKIDVLQAEVAALKTLVLSSSPTSPTQEPLAAGKTPFKRGHTRNKSTSSAMSGSHQDFSAIQPIVKDCREADLSLYNEFRSWKDEPTMDRTCPFLDKIYQEDSFPCLTFAKSELASAVLEAVENNTLSIEPVGLQPIRFVKASAVECGGPKKCALTGQSKPCKHRIKLGDSSSYYYISPVCRYRITSVCNFFTYIRYIQQGLVKQQDVDQMFWEVMQLRKEMSLAKLGYFKEEL [I329S]	disrupting interaction

Variants of: B2
Conditions: with exoc6_mouse Exoc6, Q8R313
Sequence of exoc6_mouse Exoc6, Q8R313 (Q8R313 whole entry): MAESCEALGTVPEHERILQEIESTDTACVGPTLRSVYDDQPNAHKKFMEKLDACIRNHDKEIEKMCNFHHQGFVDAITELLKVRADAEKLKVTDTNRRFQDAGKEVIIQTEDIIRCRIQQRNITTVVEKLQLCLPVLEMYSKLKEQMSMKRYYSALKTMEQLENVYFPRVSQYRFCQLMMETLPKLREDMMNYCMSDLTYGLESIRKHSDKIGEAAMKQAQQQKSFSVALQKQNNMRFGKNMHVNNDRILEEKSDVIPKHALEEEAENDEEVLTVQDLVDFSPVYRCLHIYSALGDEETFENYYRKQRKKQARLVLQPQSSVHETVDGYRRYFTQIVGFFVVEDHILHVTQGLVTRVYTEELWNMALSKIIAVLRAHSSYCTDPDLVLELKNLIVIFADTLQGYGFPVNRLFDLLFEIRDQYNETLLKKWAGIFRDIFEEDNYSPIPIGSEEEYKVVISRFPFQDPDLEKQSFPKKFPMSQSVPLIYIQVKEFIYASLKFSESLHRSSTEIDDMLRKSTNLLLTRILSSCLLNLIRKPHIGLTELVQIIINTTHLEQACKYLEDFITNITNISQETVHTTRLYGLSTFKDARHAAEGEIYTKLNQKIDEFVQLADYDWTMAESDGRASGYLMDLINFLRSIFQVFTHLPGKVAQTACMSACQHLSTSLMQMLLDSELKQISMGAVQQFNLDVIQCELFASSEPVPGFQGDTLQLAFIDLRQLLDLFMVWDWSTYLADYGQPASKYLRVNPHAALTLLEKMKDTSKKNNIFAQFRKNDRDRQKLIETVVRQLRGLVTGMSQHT

Variant	effect of a mutation on the interaction
MANDPLEGFHEVNLASPTSPDLLGVCDPGTQEQTTSPSVIYRPHPSTLCSATIQANALNLSDLPTQPVYSSPRHLNCAEISNISIHVPEPASSVASEVAAGLTRFTSRKDSCNAEREFLQGATVTEASAGNDDIFGLSTDSLSRLRSPSVLEVREKGYERLKEELAKAQRELKLKDEECERLSKVRDQLGQELEELTASLFEEAHKMVREANVKQATAEKQLKEAQGKIDVLQAEVAALKTLVLSSSPTSPTQEPLAAGKTPFKRGHTRNKATSSAMSGSHQDFSAIQPIVKDCREADLSLYNEFRSWKDEPTMDRTCPFLDKIYQEDIFPCLTFAKSELASAVLEAVENNTLSIEPVGLQPIRFVKASAVECGGPKKCALTGQSKPCKHRIKLGDSSSYYYISPVCRYRITSVCNFFTYIRYIQQGLVKQQDVDQMFWEVMQLRKEMSLAKLGYFKEEL [S272A]	disrupting interaction

Variants of: B2
Conditions: with exoc6_mouse Exoc6, Q8R313
Remark: another data set of the same source

Variant	effect of a mutation on the interaction
MANDPLEGFHEVNLASPTSPDLLGVCDPGTQEQTTSPSVIYRPHPSTLCSATIQANALNLSDLPTQPVYSSPRHLNCAEISNISIHVPEPASSVASEVAAGLTRFTSRKDSCNAEREFLQGATVTEASAGNDDIFGLSTDSLSRLRSPSVLEVREKGYERLKEELAKAQRELKLKDEECERLSKVRDQLGQELEELTASLFEEAHKMVREANVKQATAEKQLKEAQGKIDVLQAEVAALKTLVLSSSPTSPTQEPLAAGKTPFKRGHTRNKSTSSAMSGSHQDFSAIQPIVKDCREADLSLYNEFRSWKDEPTMDRTCPFLDKIYQEDSFPCLTFAKSELASAVLEAVENNTLSIEPVGLQPIRFVKASAVECGGPKKCALTGQSKPCKHRIKLGDSSSYYYISPVCRYRITSVCNFFTYIRYIQQGLVKQQDVDQMFWEVMQLRKEMSLAKLGYFKEEL [I329S]	increasing interaction
